Measurements from PMC6510816.

How the values were obtained:
[1] = target: YAP (UniProt P46937); experiment: Flag-14-3-3ζ co-IP, YAP blot; conditions: reference: Flag-14-3-3ζ wild type; sites S37
[2] = target: YAP (UniProt P46937); experiment: His-YAP Ni-NTA pull-down of Flag-14-3-3ζ IPs; conditions: reference: wild type with rERK2; sites S37

| binding against the reference [1] | binding against the reference [2] | Substance |
| --- | --- | --- |
| stronger | – | 14-3-3ζ (from UniProt P63104) Flag-14-3-3ζ S37A |
| – | gained | 14-3-3ζ (from UniProt P63104) S37A with rERK2 |
